Measured values published in patent US9289478B2, “Formulations of tumour-associated peptides binding to human leukocyte antigen (HLA) class I or class II molecules for vaccine” (IMMATICS BIOTECHNOLOGIES GMBH, priority 2008, dated 2016).

Experiments:
[1] = Stability of renal cell cancer vaccine test formulations at +25° C. and +40° C. by analytical HPLC assay; format: physicochemical; details: especially at +40° C.
Protocol: Various lyophilisates were tested with respect to stability of each individual peptide at +25° C. and […] using an analytical HPLC assay.
The peptides according to the SEQ ID NOs: 1 to 10 were lyophilised without any excipients and by addition of mannitol and Poloxamer 188 (LUTROL F68®) or TWEEN 80®.
The following test formulations were produced and stability were assessed at +25° C. and +40° C. by analytical HPLC assay:
Initial HPLC measurements have been performed for each formulation before storage in a climate chamber. For this purpose, the content of two vials was completely dissolved in 30% acetic acid and measured by RP-HPLC by repeat determination. To assure comparability between the individual measurements, β-Naphtyl-alanine was used as internal standard and lyophilized together with the peptides.
After 7, 14, 21, and 28 days, another two vials were removed from the climate chamber to assess stability.
Data assessment was performed by repeat determination of one vial. For one time point and temperature, two independent vials were used to obtain four data points in total. These values have been taken to calculate the standard deviation shown as error bars in the relevant diagram.

[2] = HPLC-assay for in-use stability after reconstitution with 4.2% sodium hydrogen carbonate solution (Example 2, peptides SEQ ID NO 1-10); format: physicochemical
Protocol: Resolubilization procedure: For clinical trials the above described formulation is dissolved in 700 μl sodium hydrogen carbonate (4.2%). Remove plastic cap from one vial. Unpack and remove sodium hydrogen carbonate (4.2%) from the refrigerator at least 30 min before resolubilization to bring them up to room temperature before injection. Prepare syringe and needle for reconstitution. Use aseptic technique to take 700 μL of diluent for reconstitution of the lyophilisate. To dissolve the lyophilisate, the vial and the diluent shall be shaken vigorously for 1 minute, check whether solution is clear, otherwise continue shaking for another minute until the solution is clear. 10 to 30 minutes after GM-CSF injection, use a new syringe to administer 500 μL reconstituted formulation i.d. at the same site. Administration has to occur within 1 h after reconstitution. Dissolved lyophilisate may be stored aseptically at room temperature for up to 1 hour following reconstitution.
However, a decrease of two specific peptides, i.e. IMA-CCN-001 and IMA-RGS-001 took place (see Table 6). As these peptides contain a cysteine residue, time-depending dimerization takes place.
Identity, purity and peptide content are determined by analytical RP-HPLC chromatography. Detection wavelength was 220 nm.

[3] = +mannitol/lutrol, 1 h after reconstitution
[4] = +mannitol/lutrol, 2 h after reconstitution
[5] = +mannitol/lutrol, 3 h after reconstitution
[6] = +mannitol/lutrol, 4 h after reconstitution
[7] = +mannitol/lutrol, 5 h after reconstitution
[8] = +mannitol/lutrol, 6 h after reconstitution
[9] = +mannitol/lutrol, Initial (starting value set to 100%)
[10] = no excipients, 1 h after reconstitution
[11] = no excipients, 2 h after reconstitution
[12] = no excipients, 3 h after reconstitution
[13] = no excipients, Initial (starting value set to 100%)

Sequence | peptide signal in formulations containing TWEEN 80 [1] | in-use stability, peptide by HPLC-assay [2, 3] [%] | in-use stability, peptide by HPLC-assay [2, 4] [%] | in-use stability, peptide by HPLC-assay [2, 5] [%] | in-use stability, peptide by HPLC-assay [2, 6] [%] | in-use stability, peptide by HPLC-assay [2, 7] [%] | in-use stability, peptide by HPLC-assay [2, 8] [%] | in-use stability, peptide by HPLC-assay [2, 9] [%] | stability after reconstitution (in words) ([2]; Example 2 formulation, 4.2% sodium hydrogen carbonate) | in-use stability, peptide by HPLC-assay [2, 10] [%] | in-use stability, peptide by HPLC-assay [2, 11] [%] | in-use stability, peptide by HPLC-assay [2, 12] [%] | in-use stability, peptide by HPLC-assay [2, 13] [%]
LAALPHSCL (listed as Homo sapiens) [RGS-001, RGS-5 tumour-associated peptide] | enhanced degradation | 97.9 | 95.5 | 94.2 | 91.6 | 88.0 | 86.8 | 100.0 | decrease | 90.9 | 77.8 | 64.6 | 100.0
SVASTITGV (listed as Homo sapiens) [ADF-001, Adipophilin tumour-associated peptide] | increase of the signal | 99.6 | 99.6 | 100.7 | 100.8 | 99.9 | 101.8 | 100.0 |  | 102.4 | 102.4 | 100.0 | 100.0
